The target in assay [1] is rHA subtype H1 (A/New Caledonia/20/99) (influenza A virus A/New Caledonia/20/99 (H1)) (UniProt Q6WG00). Description: SPR. (In SPR one partner is held on a chip, and binding of the other changes the refractive index at the surface.)
Assay [2] has as its target rHA subtype H1 (A/New Caledonia/20/99) (Influenza A virus A/New Caledonia/20/1999 (H1N1)) (UniProt Q6WG00). Description: SPR.

Kd, koff and kon data for two substances are collected here from paper PMC2596486.

The Kd is the equilibrium constant for the complex coming apart. A lower Kd goes with tighter binding. In general, koff refers to the rate constant with which the complex falls apart. A word on the kon: it is a measure of how fast the partners come together. A high value points to fast association.

On to CR6261 Fab, for which, in assay [1], the dissociation constant (Kd) was determined as 3.8 nM, the off-rate constant (koff) was determined as 0.0037 s⁻¹ and the association rate constant (kon) stood at 980000 M⁻¹ s⁻¹.

In assay [2], CR6323 Fab showed a Kd of 3.9 nM, a koff of 0.00054 s⁻¹ and an on-rate (kon) of 140000 M⁻¹ s⁻¹.
